In publication PMC10899789:

What was measured:
Conditions in all cases: 50 mM Tris-HCl pH 7.5, 50 mM NaCl, 10 mM MgCl2; SV at 20 C, SE under same conditions (5000 rpm, 260 nm)
[1] = target: T1, p6CΔ20 del85-104 (Bacillus subtilis phage phi29) (UniProt P03685); experiment: sedimentation velocity
T1 sequence: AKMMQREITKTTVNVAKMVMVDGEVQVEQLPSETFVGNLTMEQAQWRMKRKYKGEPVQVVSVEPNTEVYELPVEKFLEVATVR

[2] = target: T2, p6 wt (Bacillus subtilis phage phi29) (UniProt P03685); experiment: sedimentation equilibrium
T2 sequence: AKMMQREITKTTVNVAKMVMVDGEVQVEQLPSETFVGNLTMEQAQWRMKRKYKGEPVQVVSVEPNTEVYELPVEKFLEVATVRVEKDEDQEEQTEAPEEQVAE

[3] = target: T1, p6CΔ20 del85-104 (Bacillus subtilis phage phi29); experiment: sedimentation equilibrium

For “GCCCACATACTTTGTTGATTGGTTGTCAATCATGGCAAAAGTGCACGCTACTTTGATAACCTTTTACATGCGACACAGACGAAGCGCTAAAACGTGGGATTCTGTGTCGTTTTATGTTGTTCATTGACAAACCTATCTAGTAGGTCTATAGATTGATATATTAAGTAGTAGTTTCCCTCCCTGATCATGGTATGCCGAGGATCGACGGATTATGTCGATATTAGGAGAATGGTATCATGTGAGGGTGGGGGCTTACTTT (double strand) [L fragment (DNA-L)]”, the binding [1] was “binds”, the Kd [2] was 2460 nM and the Kd [3] was 1470 nM.
